Experimental data as given in the Immune Epitope Database (IEDB).

How the values were obtained:
HLA-B*15:01 [1] = assay: IEDB peptide-MHC binding, purified MHC/competitive/radioactivity; filed as Kd, often an IC50 or EC50 that approximates it; ≥ and ≤ were set here for values at or beyond the usual limits of such assays
HLA-B*51:01 [2] = assay: as above
HLA-A*01:01 = assay: as above
HLA-A*26:01 = assay: as above
HLA-A*29:02 = assay: as above
HLA-A*30:01 = assay: as above
HLA-A*30:02 = assay: as above
HLA-A*32:01 = assay: as above
HLA-B*15:01 [3] = assay: IEDB peptide-MHC binding, purified MHC/direct/fluorescence; filed as Kd, often an IC50 or EC50 that approximates it; ≥ and ≤ were set here for values at or beyond the usual limits of such assays; conditions: source organism: Mammarenavirus lassaense
HLA-B*46:01 = assay: as above
HLA-B*35:01 = assay: IEDB peptide-MHC binding, purified MHC/competitive/radioactivity; filed as Kd, often an IC50 or EC50 that approximates it; ≥ and ≤ were set here for values at or beyond the usual limits of such assays; conditions: source organism: Dengue virus 2 Jamaica/1409/1983
HLA-B*07:02 = assay: as above
HLA-B*40:01 [4] = assay: as above
HLA-B*44:03 = assay: as above
HLA-B*44:02 = assay: as above
HLA-A*23:01 = assay: as above
HLA-A*24:02 = assay: as above
HLA-B*18:01 = assay: IEDB peptide-MHC binding, purified MHC/direct/fluorescence; filed as Kd, often an IC50 or EC50 that approximates it; ≥ and ≤ were set here for values at or beyond the usual limits of such assays; conditions: source organism: Francisella tularensis subsp. holarctica LVS
HLA-B*40:01 [5] = assay: as above; conditions: source organism: Francisella tularensis subsp. holarctica LVS
HLA-B*53:01 = assay: IEDB peptide-MHC binding, purified MHC/competitive/radioactivity; filed as Kd, often an IC50 or EC50 that approximates it; ≥ and ≤ were set here for values at or beyond the usual limits of such assays
HLA-B*51:01 [6] = assay: IEDB peptide-MHC binding, purified MHC/competitive/fluorescence; filed as Kd, often an IC50 or EC50 that approximates it; ≥ and ≤ were set here for values at or beyond the usual limits of such assays; conditions: source organism: Escherichia coli K-12
HLA-A*68:01 = assay: IEDB peptide-MHC binding, purified MHC/competitive/radioactivity; filed as Kd, often an IC50 or EC50 that approximates it; ≥ and ≤ were set here for values at or beyond the usual limits of such assays; conditions: source organism: Dengue virus 2 Jamaica/1409/1983
[7] = source organism: Vaccinia virus WR
[8] = source organism: Dengue virus 3 Martinique/1243/1999
[9] = source organism: Lymphocytic choriomeningitis virus (strain Armstrong)
[10] = source organism: Dengue virus 2 Jamaica/1409/1983
[11] = source organism: Dengue virus 4 Philippines/H241/1956
[12] = source organism: Dengue virus 1 Singapore/S275/1990
[13] = source organism: Dengue virus 1 Brazil/97-11/1997
[14] = source organism: Dengue virus 4 Dominica/814669/1981
[15] = source organism: Mammarenavirus machupoense

SEIRWEESF gave a Kd (HLA-B*15:01 [1]; [7]) of 46.9 nM.
With LALFLAHYI the Kd (HLA-B*51:01 [2]; [8]) was 342 nM.
KLSHSDYEY was tested, and the Kd (HLA-A*01:01; [9]) was 2580 nM, the Kd (HLA-A*26:01; [9]) was ≥ 77900 nM and the Kd (HLA-A*29:02; [9]) was 1260 nM. The Kd (HLA-A*30:01; [9]) was ≥ 24200 nM, the Kd (HLA-A*30:02; [9]) was 22.5 nM and the Kd (HLA-A*32:01; [9]) was 6390 nM.
RGRIGRNPK showed a Kd (HLA-A*30:01; [10]) of 18.7 nM.
For MTRDPLYIY, the Kd (HLA-A*30:01; [7]) was 16.9 nM.
For IMGIPYCNY, the Kd (HLA-B*15:01 [3]) was 43 nM and the Kd (HLA-B*46:01; source organism: Mammarenavirus lassaense) was ≥ 20000 nM.
With KEYCVECYM the Kd (HLA-B*15:01 [1]; [7]) was 4620 nM.
For FTTRHRKPTY, the Kd (HLA-A*01:01; [11]) was ≥ 23600 nM and the Kd (HLA-A*30:01; [11]) was 1960 nM.
EPKEGTKKLM was tested, and the Kd (HLA-B*35:01) was ≥ 54400 nM.
For KLRPKWLDA, the Kd (HLA-A*30:01; [11]) was 32.7 nM.
Sequence IPKIYGGPI has a Kd (HLA-B*07:02; [12]) of 14.2 nM and a Kd (HLA-B*51:01 [2]; [12]) of 630 nM.
SQEAEFTGY was tested, and the Kd (HLA-B*46:01; source organism: Yellow fever virus) was ≥ 20000 nM.
For SQHNHRPGY, the Kd (HLA-A*30:02; [8]) was 28.7 nM and the Kd (HLA-B*15:01 [1]; [8]) was 91.2 nM.
Sequence IWGRKSWPLN has a Kd (HLA-A*30:01; [13]) of 2050 nM.
Sequence TPNLAERVL has a Kd (HLA-B*07:02; [12]) of 114 nM.
AETQHGTVL gave a Kd (HLA-B*40:01 [4]; [13]) of 0.32 nM and a Kd (HLA-B*44:03; [13]) of 52.7 nM.
With TPRGAVMDII the Kd (HLA-B*07:02; [14]) was 8.05 nM and the Kd (HLA-B*51:01 [2]; [14]) was 1350 nM.
In the case of LRHPGFTVI, the Kd (HLA-B*51:01 [2]; [13]) is reported as ≥ 10000 nM.
For YQPEREKVY, the Kd (HLA-B*46:01; source organism: West Nile virus) was ≥ 20000 nM.
For RIIPKNNHA, the Kd (HLA-B*15:01 [1]; [7]) was 444 nM.
With TPQDNQLTYV the Kd (HLA-B*07:02; [10]) was 1330 nM and the Kd (HLA-B*51:01 [2]; [10]) was 16400 nM.
For KAYLYTEYF, the Kd (HLA-B*15:01 [1]; [7]) was 7.64 nM.
Work on YNNFYFYSF yielded a Kd (HLA-B*15:01 [1]; [7]) of 1460 nM.
In the case of SENEVKLTI, the Kd (HLA-B*40:01 [4]; [10]) is reported as 373 nM, the Kd (HLA-B*44:02; [10]) is reported as 0.814 nM and the Kd (HLA-B*44:03; [10]) is reported as 14.1 nM.
For CTNFKTQLV, the Kd (HLA-A*01:01; [15]) was 1150 nM, the Kd (HLA-A*23:01; [15]) was ≥ 77700 nM and the Kd (HLA-A*24:02; [15]) was ≥ 77500 nM. The Kd (HLA-A*26:01; [15]) was 13200 nM, the Kd (HLA-A*29:02; [15]) was 4460 nM and the Kd (HLA-A*30:01; [15]) was 1040 nM. The Kd (HLA-A*30:02; [15]) was 2290 nM and the Kd (HLA-A*32:01; [15]) was ≥ 77800 nM.
For VEIGLGMPF, the Kd (HLA-B*18:01) was ≤ 1 nM and the Kd (HLA-B*40:01 [5]) was 16.8 nM.
Sequence GAIDLCRHF has a Kd (HLA-B*15:01 [1]; [7]) of 117 nM.
Work on FSHDHIGHG yielded a Kd (HLA-B*15:01 [1]; [7]) of 31.9 nM.
For RQRTPQDNQL, the Kd (HLA-B*15:01 [1]; [13]) was 112 nM.
For REIPERSWNT, the Kd (HLA-B*40:01 [4]; [11]) was 1480 nM.
For FIRMLILNF, the Kd (HLA-B*15:01 [1]; source organism: Vaccinia virus Copenhagen) was 7450 nM.
For YAQMWSLMYF, the Kd (HLA-A*23:01; [8]) was 594 nM, the Kd (HLA-A*24:02; [8]) was 247 nM and the Kd (HLA-B*15:01 [1]; [8]) was 9.91 nM. The Kd (HLA-B*51:01 [2]; [8]) was 12900 nM and the Kd (HLA-B*53:01; [8]) was 106 nM.
RIKQQGIFG gave a Kd (HLA-A*30:01; [8]) of 19.9 nM.
For FQYSDRRWCF, the Kd (HLA-A*23:01; [13]) was 272 nM, the Kd (HLA-A*24:02; [13]) was 2480 nM and the Kd (HLA-B*15:01 [1]; [13]) was 3.88 nM.
Work on LETLMLVAL yielded a Kd (HLA-B*40:01 [4]; [11]) of 3.49 nM and a Kd (HLA-B*44:02; [11]) of 1100 nM.
In the case of YPYSDDLTI, the Kd (HLA-B*51:01 [6]) is reported as 281 nM.
In the case of EPIPMATYGW, the Kd (HLA-A*26:01; [13]) is reported as ≥ 69700 nM and the Kd (HLA-B*53:01; [13]) is reported as 13.2 nM.
Sequence KEGDQYVYM has a Kd (HLA-B*40:01 [4]; [13]) of 397 nM.
Work on TPRSPSVEV yielded a Kd (HLA-B*07:02; [11]) of 2.58 nM and a Kd (HLA-B*51:01 [2]; [11]) of 538 nM.
Work on KLITQFETY yielded a Kd (HLA-A*30:02; [8]) of 7780 nM, a Kd (HLA-A*32:01; [8]) of 202 nM and a Kd (HLA-B*15:01 [1]; [8]) of 20.2 nM.
With RAKRGTAQI the Kd (HLA-A*30:01; [13]) was 137 nM.
FTMRLLSPVR was tested, and the Kd (HLA-A*30:01; [10]) was 9070 nM and the Kd (HLA-A*68:01) was 7.73 nM.
KYRYGTFLY gave a Kd (HLA-A*30:01; [7]) of 1.07 nM.
Sequence WENNIKLTVV has a Kd (HLA-B*40:01 [4]; [8]) of 443 nM.
RQEKGKSLLF was tested, and the Kd (HLA-B*15:01 [1]; [10]) was 42.3 nM.
With IQKETLVTF the Kd (HLA-A*23:01; [10]) was 40.5 nM, the Kd (HLA-A*24:02; [10]) was 1560 nM and the Kd (HLA-B*15:01 [1]; [10]) was 1.61 nM.
